The values below come from patent publication US20200316166A1, “Drug and Method for Treating Liver Diseases Related to Hepatitis B Viruses in Full-Dose Condition” (Shanghai Hep Pharmaceutical Co., Ltd., priority 2017, published 2020).

One test deals with T1, NTCP (Homo sapiens, UniProt Q14973).
T1 construct: expressed in transfected cells; host or cells: 293 (HEK293) cells
T1 sequence (Q14973 1-349): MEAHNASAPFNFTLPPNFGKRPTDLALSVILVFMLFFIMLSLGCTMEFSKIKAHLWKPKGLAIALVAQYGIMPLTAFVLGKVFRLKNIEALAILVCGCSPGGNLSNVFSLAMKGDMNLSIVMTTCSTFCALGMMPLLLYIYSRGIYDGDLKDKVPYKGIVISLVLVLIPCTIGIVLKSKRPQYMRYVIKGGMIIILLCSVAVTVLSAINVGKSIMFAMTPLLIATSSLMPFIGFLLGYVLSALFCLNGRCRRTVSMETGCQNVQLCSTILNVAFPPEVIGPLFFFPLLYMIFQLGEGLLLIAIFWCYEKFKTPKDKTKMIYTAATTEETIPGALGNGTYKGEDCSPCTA
As to the kind of experiment: Binding of FITC-labeled polypeptide to NTCP-293 cells. Particulars: FITC label; for binding to NTCP-293 cells: 293 cells transfected with NTCP; for binding to 293 cells not transfected with NTCP (BLANK-293): control cells. An excerpt:
NTCP-293 cell line was formed by transfecting non-hepatocyte-derived 293 cells with NTCP.

Test [1] has as its target sodium taurocholate cotransporting polypeptide (NTCP) expressed on transfected 293 cells (NTCP-293) (human) (UniProt Q14973). The experiment in a line: cell-based or functional assay.
Where [2] appears, read: listed as hepalatide labeled with FIFC.

hepalatide, sequence (P31868 13-59): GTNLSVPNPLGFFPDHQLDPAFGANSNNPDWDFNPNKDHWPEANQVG

Take “FITC-hepalatide: hepalatide (Cmyr-47) fluorescently labeled by FITC at amino acid K at position 37”: in the test with NTCP, the “binding to NTCP-293 cells” value is “bound to NTCP-293 cells” and the “binding to 293 cells not transfected with NTCP (BLANK-293)” value was “did not bind to 293 cells”. In the test with NTCP (setting [2]), the “binding to NTCP-293 cells” value is “bind to NTCP expressing HEK293 cells” and the “binding to 293 cells not transfected with NTCP (BLANK-293)” value is on record as “do not bind to control HEK293 cells”.

For hepalatide (peptide), in test [1], the IC50 of inhibition of NTCP-293 uptake of 3H-labeled bile acid (3H-TA) is 0.839 µg/mL.
